molecular target: T1, HLA-A*0201 (human); assay: UV-ligand exchange, streptavidin/anti-b2m sandwich ELISA
T1 construct: MHC monomer first loaded with a UV-sensitive peptide that is cleaved and exchanged for the test peptide; captured on streptavidin; also called peptide-receptive MHC molecules
Source text: Candidate peptides for the vaccines according to the present invention were further tested for immunogenicity by in vitro priming assays. The individual peptide-MHC complexes required for these assays were produced by UV-ligand exchange, where a UV-sensitive peptide is cleaved upon UV-irradiation, and exchanged with the peptide of interest as analyzed. Only peptide candidates that can effectively bind and stabilize the peptide-receptive MHC molecules prevent dissociation of the MHC complexes. To determine the yield of the exchange reaction, an ELISA was performed based on the detection of the light chain (β2m) of stabilized MHC complexes.
96 well MAXISorp plates (NUNC) were coated over night with 2ug/ml streptavidin in PBS at room temperature, washed 4× and blocked for 30 min at 37° C. in 2% BSA containing blocking buffer. Refolded HLAA*0201/MLA-001 monomers served as standards, covering the range of 8-500 ng/ml. Peptide-MHC monomers of the UV-exchange reaction were diluted 100 fold in blocking buffer. Samples were incubated for 1 h at 37° C., washed four times, incubated with 2ug/ml HRP conjugated anti-β2m for 1 h at 37° C., washed again and detected with TMB solution that is stopped with […]. Absorption was measured at 450 nm.

Binder	Average exchange yield in % [%]
AVVEFLTSV (synthetic peptide from DROSHA) [DROSHA-001]	68
FLVDGSWSV (synthetic peptide from COL12A1) [COL12A1-002]	55
TLWYRAPEV (synthetic peptide from CDK4/CDK6) [CDK4-001]	45
SLFGNSGILENV (synthetic peptide from CEP192) [CEP192-001]	56
ALFPHLLQPV (synthetic peptide from CSE1L) [CSE1-001]	55
YLIHFPVSV (synthetic peptide from AKR1C1, AKR1C2) [AKR-001]	13
VLFPNLKTV (synthetic peptide from BNC1) [BNC1-001]	43

Other lines, results leading:

Average exchange yield in % [%]	Binder
54	KLVEFDFLGA (synthetic peptide from TACC3) [TACC3-001]
48	SLYKGLLSV (synthetic peptide from RAD54B) [RAD54B-001]
71	ALMDKEGLTAL (synthetic peptide from TANC2) [TANC2-001]
61	RLLDSVSRL (synthetic peptide from LAMC2) [LAMC2-001]
73	ALLRTVVSV (synthetic peptide from GALNT2) [GALNT2-001]
45	RLLGPSAAADILQL (synthetic peptide from HUWE1) [HUWE1-001]
87	GVLENIFGV (synthetic peptide from PCNXL3) [PCNXL3-001]
18	AIMGFIGFFV (synthetic peptide from SEC61G) [SEC61G-001]
56	KILEDVVGV (synthetic peptide from TPX2) [TPX2-001]

Reference: patent US20250066422A1 (published 2025)
